# According to the supplement of paper PMC12667976:
# ± gives the standard error.
# B1: library; numbered along this chain (parent)
# chain: MATDAALRRLLRLHRTEIAVAVDSAFPLLHALADHDVVPEDKFQETLHLKEKEGCPQAFHALLSWLLTQDSTAILDFWRVLFKDYNLERYGRLQPILDSFPKDVDLSQPRKGRKPPAVPKALVPPPRLPTKRKASEEARAAAPAALTPRGTASPGSQLKAKPPKKPESSAEQQRLPLGNGIQTMSASVQRAVAMSSGDVPGARGAVEGILIQQVFESGGSKKCIQVGGEFYTPSKFEDSGSGKNKARSSSGPKPLVRAKGAQGAAPGGGEARLGQQGSVPAPLALPSDPQLHQKNEDECAVCRDGGELICCDGCPRAFHLACLSPPLREIPSGTWRCSSCLQATVQEVQPRAEEPRPQEPPVETPLPPGLRSAGEEVRGPPGEPLAGMDTTLVYKHLPAPPSAAPLPGLDSSALHPLLCVGPEGQQNLAPGARCGVCGDGTDVLRCTHCAAAFHWRCHFPAGTSRPGTGLRCRSCSGDVTPAPVEGVLAPSPARLAPGPAKDDTASHEPALHRDDLESLLSEHTFDGILQWAIQSMARPAAPFPS
# Variants of: B1
# Assay: AIRE transcriptional activation functional score (insulin promoter-GFP; nonsense median 0, synonymous median 1) (normalised score); higher = higher AIRE activity (more reporter activation)
# Conditions: with insulin promoter-GFP reporter in HEK293
# Procedure, shortened: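 Codon-optimized AIRE NNN-codon libraries (three regions) were integrated by Bxb1 recombinase into Flp-In T-REx HEK293 landing-pad cells carrying an insulin core promoter-GFP reporter. Integrants (mCherry+, BFP−) sorted at day 7 were expanded 7 days; top 10% GFP and unselected integrant populations were tile-sequenced. Functional score is select versus non-select variant enrichment, wild-type subtracted. Variants needed 10 counts per million in non-select; scores were rescaled to nonsense median 0 and synonymous median 1, then averaged over biological replicates.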
row,Variant,AIRE transcriptional activation functional score
1,P380I,1.14 ± 0.28
2,A134E,-0.378 ± 0.22
3,P509Y,1.11 ± 0.057
4,P509N,0.827 ± 0.43
5,A33V,1.53 ± 0.84
6,A265F,1.53 ± 0.34
7,T334P,0.902 ± 0.28
8,R272G,0.842 ± 0.29
9,Y394E,0.49 ± 0.066
10,A246D,0.858 ± 0.022
11,C299G,0.55 ± 0.22
12,L11Y,-0.339 ± 0.4
13,L255V,1 ± 0.28
14,T232E,1.05 ± 0.18
15,T232M,1.22 ± 0.026
16,G421R,0.926 ± 0.27
17,L291H,0.333 ± 0.37
18,L291Y,1.69 ± 0.043
19,G197P,1.23 ± 0.3
20,G197M,0.448 ± 0.058
21,G197Y,0.74 ± 0.054
22,H396R,1.03 ± 0.087
23,A429I,1.14 ± 0.12
24,A429W,1.2 ± 0.081

row,Variant,AIRE transcriptional activation functional score
1,Q44D,0.948 ± 0.073
2,G91R,1.22 ± 0.57
3,P355V,1 ± 0.13
4,P355N,1.11 ± 0.24
5,R174E,0.744 ± 0.072
6,V393Y,0.561 ± 0.21
7,V393R,0.0991 ± 0.16
8,A540P,1.07 ± 0.37
9,D514F,0.299 ± 0.13
10,C419K,1.17 ± 0.096
11,I181Q,-0.331 ± 0.19
12,P492I,1.13 ± 0.2
13,R79D,0.209 ± 0.067
14,F230E,0.377 ± 0.23
15,G305S,0.9 ± 0.29
16,G305M,0.666 ± 0.1
17,R494M,0.56 ± 0.088
18,K294L,0.857 ± 0.44
19,C311H,1.01 ± 0.45
20,P368C,1.55 ± 0.16
21,P368L,1.01 ± 0.23
22,P129Q,0.651 ± 0.14
23,Q290V,1.04 ± 0.32
24,L366F,1.02 ± 0.096

row,Variant,AIRE transcriptional activation functional score
1,V38A,-0.245 ± 0.75
2,V20C,-0.981 ± 0.093
3,D526G,0.346 ± 0.28
4,P95Y,1.97 ± 0.6
5,Y231L,0.803 ± 0.15
6,P162H,2.88 ± 0.062
7,E167Y,2.17 ± 0.39
8,A352E,0.933 ± 0.14
9,V487N,0.296 ± 0.28
10,P350A,1.13 ± 0.18
11,P350C,0.761 ± 0.15
12,Q57P,-0.527 ± 0.52
13,L428G,0.959 ± 0.25
14,G155C,0.555 ± 0.12
15,P154M,-0.062 ± 0.16
16,A281T,0.867 ± 0.14
17,E40V,0.0752 ± 0.28
18,L93V,0.0157 ± 0.17
19,P109C,0.656 ± 0.81
20,D410S,1.27 ± 0.16
21,L370Q,0.241 ± 0.24
22,F82R,0.341 ± 1.1
23,Q275N,1.01 ± 0.25
24,A160V,1.38 ± 0.53

row,Variant,AIRE transcriptional activation functional score
1,A160P,-0.0016 ± 0.82
2,D4A,0.529 ± 0.99
3,I211M,0.504 ± 0.89
4,K111V,1.37 ± 0.51
5,Q182N,1.54 ± 0.41
6,R12F,-0.626 ± 0.18
7,L385K,0.616 ± 0.16
8,K102P,-1.25 ± 0.1
9,S287G,1.22 ± 0.13
10,S287D,0.579 ± 0.25
11,V377R,1.09 ± 0.4
12,A205V,0.34 ± 0.11
13,N427Q,0.539 ± 0.033
14,H14T,0.312 ± 0.1
15,T16L,-0.113 ± 0.4
16,D442M,0.124 ± 0.025
17,D442R,0.257 ± 0.081
18,P115Y,0.917 ± 0.29
19,P115I,0.466 ± 0.77
20,E207H,0.756 ± 0.28
21,E207Q,0.672 ± 0.052
22,S135I,1.2 ± 0.12
23,L7G,-0.106 ± 0.71
24,P430G,1.21 ± 0.26

row,Variant,AIRE transcriptional activation functional score
1,A541G,0.847 ± 0.25
2,K52G,0.435 ± 0.41
3,A152R,0.913 ± 0.49
4,A152T,1.32 ± 0.64
5,S491L,0.845 ± 0.38
6,S278T,1.23 ± 0.46
7,A510K,0.165 ± 0.099
8,S338I,1.18 ± 0.27
9,L49D,-0.689 ± 0.07
10,P542S,1.07 ± 0.28
11,L146G,0.344 ± 0.47
12,T364S,0.643 ± 0.38
13,L32T,-0.512 ± 0.21
14,P163C,1.48 ± 0.27
15,S412R,1.07 ± 0.29
16,A58S,-0.0331 ± 0.37
17,A58Q,-0.509 ± 0.4
18,S168R,1.36 ± 0.38
19,P315H,0.985 ± 0.093
20,S241Y,1.12 ± 0.024
21,K50T,0.51 ± 0.5
22,V214P,0.238 ± 0.098
23,V214L,0.413 ± 0.73
24,Q225P,0.572 ± 0.47

row,Variant,AIRE transcriptional activation functional score
1,P116A,0.756 ± 0.5
2,D70R,0.35 ± 0.4
3,T524V,0.353 ± 0.35
4,T524W,0.629 ± 0.04
5,F236A,1.03 ± 0.3
6,G268V,1.02 ± 0.21
7,R351D,0.673 ± 0.086
8,R351S,1.01 ± 0.3
9,T504L,0.843 ± 0.21
10,K245M,0.0585 ± 0.082
11,K245A,1.33 ± 0.067
12,H512N,1.02 ± 0.17
13,V123P,0.742 ± 0.58
14,A321E,0.854 ± 0.085
15,R132Q,0.308 ± 0.29
16,L409V,0.903 ± 0.31
17,E17I,-0.454 ± 0.54
18,R247Y,0.724 ± 0.25
19,R139E,0.912 ± 0.071
20,A61Q,0.472 ± 0.21
21,A61C,-0.153 ± 0.5
22,S196K,0.809 ± 0.15
23,G467E,1.16 ± 0.064
24,F77P,-0.416 ± 0.52

row,Variant,AIRE transcriptional activation functional score
1,H448F,0.906 ± 0.038
2,A489W,0.893 ± 0.068
3,G374I,1.18 ± 0.31
4,P125L,1.24 ± 0.24
5,D478C,0.947 ± 0.032
6,T72A,1.01 ± 0.49
7,S332W,1.41 ± 0.042
8,L210R,0.504 ± 0.38
9,A21L,-0.19 ± 0.3
10,H60Y,0.332 ± 0.24
11,T46S,0.455 ± 0.51
12,A537C,0.622 ± 0.053
13,K164E,0.857 ± 0.29
14,K164D,-0.844 ± 0.5
15,N244H,0.405 ± 0.17
16,E353S,1.14 ± 0.19
17,S506M,0.671 ± 0.15
18,P398L,1.5 ± 0.24
19,L406C,1.3 ± 0.17
20,T130R,0.316 ± 0.33
21,T130K,0.531 ± 0.12
22,K159T,1.05 ± 0.27
23,K159N,1.33 ± 0.49
